{"source": "a protein production outcome set (Wang et al. 2014)", "test": "label from the status in PepcDB records"}
{"sequence": "MKSSVVSAWDMLWRSHREAKRLLLFAMPVRAGKDAGLKINSEQTMKEEKPPSYKTPQKIGLLLGPALFFAVLLFFFPEGLSYEGRMVLATTLWVAVWWITEAVPIPAASLLPIVLLPLTGALEGAAVTSSYGDPIVFLFLGGFLIALAMERWNLHKRIALNIISVVGTSTSRIVLGFMAATGFLSMWVSNTAAVMMMLPIGTAIIHQVSAVIKSERKDLAAEEAKFSKALIFSIGYAGTIGGLGTLIGTPPNIILAANIKKLYGVEVSFGGWMAFAVPVVVILLVAVWLYLTKVAHPIKMKELPGGKELILEEKRKLGKMSFEETMVLLVFGFAAFMWVTRTFLWDDKIPGIDDTMIAIFAASLLFLIPSLNKGGRVLDWSVSKDLPWGILLLFGGGLALATGFKETGLAEWIGGRLTVLDGFNFVVIVIISTALVLFLTEITSNTATATMILPVLASLALALNVHPYALMVPAAMAANCAFMLPVGTPPNAIIFASGKLKISEMVRTGFVINIFTLILIVGAVFYILPHLWGVDLTVFPDNLKSN", "values": [{"measurement": "protein production", "value": "failed"}]}
{"sequence": "MTIQPDFNDEPGAFAMTHTHTALDKTLKERIFHALAFEGLAVLLTAPVLSLVMNKPLAHMGALTLMFSTVAMLWNMLFNSLFDRAQRRMGFQRTLQVRVLHAMLFELGLIVVLVPLAAWWLSIGLVEAFLLDMGLILFFLPYTMAFNWSYDVLRARLVESRQAKAAGCDAG", "values": [{"measurement": "protein production", "value": "failed"}]}
{"sequence": "AHTKISPLGIDTLCFKVSTNPGQPLQPIAKVASGGELSRISLAIQVITAQKVDTPSLIFDEVDVGISGPTAAVVGKMLRTLGESTQVLCVTHLPQVAGCGHNQLFVAKHTKSGKTETQMRALNLEERVEELARLLGGTQITAHTLANAKELLNAA", "values": [{"measurement": "protein production", "value": "failed"}]}
{"sequence": "LTGFQNYLNSIIDSMPSALIALDEQLYVTQWNQEASALSGTRLDEALNQPIFLAFEPLKPFLPQLKETVEQHTVTKVERVTWFKDEEPKHYALTFYPLMGGAGRGVVIRIDDITQRLSLEEMMVQSEKMLSVGGLAAGMAHEINNPLGAI", "values": [{"measurement": "protein production", "value": "failed"}]}
{"sequence": "QDWLTFQKKHITNTRDVDCDNIMSTNLFHCKDKNTFIYSRPEPVKAICKGIIASKNVLTTSEFYLSDCNVTSRPCKYKLKKSTNKFCVTCENQAPVHFVGVGSC", "values": [{"measurement": "protein production", "value": "not failed"}]}
{"sequence": "MPNELSRSLSPYLLMHANDPVEWRMWSKETLRIATEENRLIFLSIGYSSCHWCHVMHEESFVDPDVAEILNNNYIPVKVDREERPDLDSYFMKVSQVINGNGGWPLNIILLPDARPVFAMTYVPKEDRNGMTGLKTILIQLSQMYLKDPDQFKDQAKAVSDAMEERESV", "values": [{"measurement": "protein production", "value": "not failed"}]}
{"sequence": "MDVMRSVLGMVVLLTIAFLLSVNKKKISLRTVGAALVLQVVIGGIMLWLPPGRWVAEKVAFGVHKVMAYSDAGSAFIFGSLVGPKMDTLFDGAGFIFGFRVLPAIIFVTALVSILYYIGVMGILIRILGGIFQKALNISKIESFVAVTTIFLGQNEIPAIVKPFIDRLNRNELFTAICSGMASIAGSTMIGYAALGVPVEYLLAASLMAIPGGILFARLLSPATESSQVSFNNLSFTETPPKSIIEAAATGAMTGLKIAAGVATVVMAFVAIIALINGIIGGVGGWFGFEHASLESILGYLLAPLAWVMGVDWSDANLAGSLIGQKLAINEFVAYLNFSPYLQTAGTLDAKTVAIISFALCGFANFGSIGVVVGAFSAVAPHRAPEIAQLGLRALAAATLSNLMSATIAGFFIGLA", "values": [{"measurement": "protein production", "value": "failed"}]}
{"sequence": "MRNDTMLNDTPFQDDDSRWQAVVTRNKAADSCFIYAVKTTSIYCAPSCASRQPRRENVVFFATADEAQAAGFRPCKRCRQGMLSRQEQQAQQIARACRMIEQSDRPPTLAVLAQAVGMSAFHFHRVFKTTTGLTPKQYASAYRHRQLREHLADNGEVTAAIVAAGYDASGRFYAEAGTHLGMTPTAFQNRGKGMTIHFAIGRCSLGDVLVAESEKGICAILLGDDPEPLLNTLQEMFAHAHLVGGDAAFEQRMSQVVGFVDDPSIGLTLPLDIRGTAFQQRIWQALRAIPVGETLSYREVAERIGSPAAVRAVAGACAANRLAVAIPCHRVVRHDGALSGYRWGVERKRALLEKEQVEKKQIVHQPEESPP", "values": [{"measurement": "protein production", "value": "failed"}]}
{"sequence": "MRSAAVLALLLCAGQVTALPVNSPMNKGDTEVMKCIVEVISDTLSKPSPMPVSQECFETLRGDERILSILRHQNLLKELQDLALQGAKERAHQQKKHSGFEDELSEVLENQSSQAELKEAVEEPSSKDVMEKREDSKEAEKSGEATDGARPQALPEPMQESKAEGNNQAPGEEEEEEEEATNTHPPASLPSQKYPGPQAEGDSEGLSQGLVDREKGLSAEPGWQAKREEEEEEEEEAEAGEEAVPEEEGPTVVLNPHPSLGYKEIRKGESRSEALAVDGAGKPGAEEAQDPEGKGEQEHSQQKEEEEEMAVVPQGLFRGGKSGELEQEEERLSKEWEDSKRWSKMDQLAKELTAEKRLEGQEEEEDNRDSSMKLSFRARAYGFRGPGPQLRRGWRPSSREDSLEAGLPLQVRGYPEEKKEEEGSANRRPEDQELESLSAIEAELEKVAHQLQALRRG", "values": [{"measurement": "protein production", "value": "failed"}]}
{"sequence": "MGQIGVEITGVITDISEIKTFKRRDGSLGKYKRITIADKSGTIRMTLWDDLAELDVKVGDVIKIERARARKWRNNLELSSTSETKIKKLENYEGELPLEHHHHHH", "values": [{"measurement": "protein production", "value": "not failed"}]}
{"sequence": "MIIGIDLGTTNSAVAYIDDSGNPTILPNREGERVTPSVIFFEDGSPVIGSTAKSISVSDPTNTVQFVKRQMGNASYKFPIGGEVFTPEDLSALILKRLKEDAEEAIGAKVTKAVITVPAYFDDAQRKATQDAGRIAGLHVLKVINEPTAAALAYGLANREQKQNVMVYDLGGGTFDVTLIQLNQDEVVVKATGGDRNLGGFDFDNKIFELVEQKFEEEHGLDLYDDLNAVQDLREKAEACKKMLSSRKKSVITLSSQGRTVKVEVTKEKFDELLSPLLSRTALIMKNVLMDAELSWGDIDKIVLVGGSTRVPAVSDLIERTTGIKPSKDVNPDEVVALGAAIQGSLLQVDNEASNNAEEFKPKTRVVDVNSHSLGILIHDNNTGGFINQKMIVRNTPIPASEEAVFYTVNDGQTSLHVQVTEGEDSDPDFVKVIGESNLDLRGSKPQGYPVRFIFTYDENGVVHVYGKDENTGQHLGEMQIERKSNLTEAAIEKKAEKLAGISVE", "values": [{"measurement": "protein production", "value": "failed"}]}
{"sequence": "MSVFTPLARPELETFLAPYGLGRLLDYQGIAAGSENTNYFISLEQGEFVLTLVERGPVQEMPFFIELLDVLHDANLPVPYALRTTDGQALRELAGKPALLQPRLPGKHISEPNTQHCVQIGELLANLHLATREQVLERKTDRGLDWMLSEGRNFLSHLGETQRALLEKSLQEIEDLKPQIMALPRANLHADLFRDNVLFEGTHLTGLIDFYNACSGPMLYDLAIALNDWCSRENGQLDAVRARALLGAYAGLRPFTAAESKLWATMLRIACVRFWLSRLIAAETFAGQDVLIHDPVEFEQRLAERQTPHIALPFAL", "values": [{"measurement": "protein production", "value": "not failed"}]}
{"sequence": "MFQLRKKMTRKQLALLSAGVLTCVVGGSYLIMNHQQQEIVSSVNKVKALTIKEAMEQGKDISLTLAGEVTANNSSKVKIDSSKGEVKEVFVKKGDVVKVGQPLFSYETSQRLTAQSSEFDVQTKANQLQVAKTNAALKWETYNRKVNEINTLKSRYNTAPDESLLEQIRSAEDSVSQALSDAKTADSDVKTAQIELDKANATATTEKGKLEYDTVKSDTAGTIVSLNTDLPNQSKSKKENETFMEIIDKSKMLVKGNISEFDRDKLKIGQKVEVIDRKDNSKKWTGKVTQVGNLKAEEKGQGQGQGGNDQQDNPNQAKFPYVIELDQSDKQPLIGSHTYVNVLNNVPEAGKIVLKETFTMAENGKTYVWKVDKNKVKKQEIKTKPFSKGYVEVTSGLTMQDKIAQPLPGMKDGMEVGSIVKP", "values": [{"measurement": "protein production", "value": "failed"}]}
{"sequence": "MNEKVYYFIKSYDDSLPMPPAESFGQILNETYLHPFDWSARTTRKSYWWSVLINFILSILCIVLGFYAFNKNINPGIRVIDAVVAIVVYLWVFLAGLGQMVRRLHDVGYSGYWYWSTFTGYGTMFLFYLALQPSAQRKVKWGKYLFSDQDYPEGKKEKVPVPTIGQILKEHFFDCFNWDARSTRTSFWVGTAINQVVMVIGVLACYLIAFLLFLPFRVTGLNSDDSKVIAVFFIIFLIFFAAVTIWAFLAQLGHTVRRLHDAGFNGGWWWLSVIPYVGQLLLAFLLFHPTVKNEVKWNKYLFDPEDRIR", "values": [{"measurement": "protein production", "value": "failed"}]}
{"sequence": "MACGATLKRPMEFEAALLSPGSPKRRRCAPLPGPTPGLRPPDAEPPPLQMQTPPASLQQPAPPGSERRLPTPEQIFQNIKQEYNRYQRWRHLEVVLSQSEACTSETQPSSSALTAPGSPGAFWMKKDQPTFTLRQVGIICERLLKDYEDKVREEYEQILSTKLAEQYESFVKFTHDQIMRRYGTRPTSYVS", "values": [{"measurement": "protein production", "value": "failed"}]}
{"sequence": "MFAGSIPMYIRVVSITAQSKLQFDMTVTYFENVWSPKVISLGAISAEFVQSNENSGMYIIHYPDKQTAISVFDKIKPEVDEVRTQNRIQITEGKRLFRVD", "values": [{"measurement": "protein production", "value": "not failed"}]}
